Experimental data reported in PMC11367651.

Experiments:
Settings in all cases: reference: unphosphorylated MAP2c; sites Y67
[1] = target: Grb2 (growth factor receptor-bound protein 2) SH2 domain, 57-158 (UniProt P62993); experiment: NMR HNCO chemical shift perturbation of MAP2c
[2] = target: Grb2 (growth factor receptor-bound protein 2) SH2 domain, 57-158 (UniProt P62993); experiment: NMR HNCO peak broadening of labeled MAP2c
[3] = target: Grb2 (growth factor receptor-bound protein 2) SH2 domain, 57-158 (UniProt P62993); experiment: 1H,15N HSQC titration of 15N-Grb2-SH2 with MAP2c

- binding against the reference [1]: gained
- binding against the reference [2]: stronger
- KD [3]: gained; reference No significant CCSP
Substance: MAP2c (microtubule-associated protein 2c) (from UniProt P15146) Fyn-phosphorylated MAP2c
